Experimental data reported in publication PMC12800249 (Scientific Reports, 2025).

Experiments:
[1] = target: delta opioid receptor (DOR) (Rattus norvegicus, UniProt P33533); assay: Intracellular cAMP assay; type: cell-based; settings: FRSK cells; 10 μM forskolin, 1–1000 nM peptide, 30 min; cAMP-Glo
MOR = settings: literature statement; cited from earlier work

Chain of delta opioid receptor (DOR) (P33533 whole entry): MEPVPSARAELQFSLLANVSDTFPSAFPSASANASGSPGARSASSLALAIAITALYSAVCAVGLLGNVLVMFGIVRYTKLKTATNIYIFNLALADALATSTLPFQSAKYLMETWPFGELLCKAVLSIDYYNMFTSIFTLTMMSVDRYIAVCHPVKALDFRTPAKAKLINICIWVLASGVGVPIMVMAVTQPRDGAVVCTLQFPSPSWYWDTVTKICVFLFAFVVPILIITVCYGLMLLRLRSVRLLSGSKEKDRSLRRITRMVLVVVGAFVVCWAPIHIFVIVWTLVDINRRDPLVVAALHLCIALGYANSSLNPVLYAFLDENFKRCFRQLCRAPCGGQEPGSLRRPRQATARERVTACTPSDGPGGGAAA

β-endorphin
effect on forskolin-induced intracellular cAMP [1]: attenuated this forskolin-induced increase in cAMP concentration in a dose-dependent manner | receptor preference (MOR) (MOR): primary ligand for MOR
